These are literature values, as cited in article PMC7611479.

For one data set, the target named is guanylin (Homo sapiens) (UniProt Q02747).
The target in data set [1] is uroguanylin (Homo sapiens) (UniProt Q16661).

With GC-C ECD (from UniProt P25092), the Kd (commonly a measure of binding affinity in units of concentration) was 10 nM with guanylin (Homo sapiens) and 1 nM in data set [1].
